As usually defined, the EC50 is the concentration giving half of the maximal effect. As a reminder, the Kd is the free concentration of one partner at which half of the binding sites on the other are occupied at equilibrium, for simple one-to-one binding.

The values that follow come from patent US20150315275A1 (AstraZeneca / MedImmune, published 2015).

Values joined by “and” are separate entries in the source; they are usually repeats but may differ in a detail not shown here. Equal values may be shown once.

Experiment [1] deals with T1, B7-H4ECD his-tagged protein (Sinobiologics) (human, UniProt Q7Z7D3 25-259).
T1 construct: Bought protein; Result paragraph calls the target human B7-H4; also called B7-H4 extracellular domain; not shown: his tag
T1 sequence: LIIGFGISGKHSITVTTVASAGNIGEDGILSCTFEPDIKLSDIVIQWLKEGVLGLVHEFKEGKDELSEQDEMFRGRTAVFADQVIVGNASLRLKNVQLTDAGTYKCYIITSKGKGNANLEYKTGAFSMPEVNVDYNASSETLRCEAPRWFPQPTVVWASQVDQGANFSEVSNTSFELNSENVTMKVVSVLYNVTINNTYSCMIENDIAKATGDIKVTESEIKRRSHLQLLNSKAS
Briefly: ELISA, B7-H4ECD his-tagged protein coated. The method, then: 100 μl 1 μg/ml B7-H4ECD his-tagged protein (Sinobiologics) diluted in PBS was immobilized on flat bottom 96 well plate (Costar 9017) overnight at 4° C. Plates were washed twice with PBS+0.1% PS-20 and blocked with 200 μl/well PBS 10% FBS at RT for 1 hr. 100 μl chimeric 6H3 and 14 selected 6H3 humanized variants diluted in PBS 10% FBS were added to each well and incubated at RT for 1 hr. Plates were washed three times and 100 μl 1 μg/ml anti-human Ig HRP (Sigma) was added to each well and incubated at RT for 1 hr. Plates were washed six times and 100 μl TMB substrate (SurModics) was added to each well for 5-15 mins 100 μl stop solution (0.1M Sulfuric acid) was added to each well. Plates were read at Absorbance 450 nm by PerkinElmer EnVision 2104 Multilabel Reader.
On the technique in general: ELISA stands for enzyme-linked immunosorbent assay.

Experiment [2] concerns the target T2, mouse B7-H4ECD mIgG2a Fc fusion protein (mouse, UniProt Q7TSP5 25-257, limits assumed).
T2 construct: also called mouse B7-H4-mIg fusion protein; Mouse B7-H4-mouse-Ig Fusion Protein; not shown: mouse IgG2a Fc
T2 sequence: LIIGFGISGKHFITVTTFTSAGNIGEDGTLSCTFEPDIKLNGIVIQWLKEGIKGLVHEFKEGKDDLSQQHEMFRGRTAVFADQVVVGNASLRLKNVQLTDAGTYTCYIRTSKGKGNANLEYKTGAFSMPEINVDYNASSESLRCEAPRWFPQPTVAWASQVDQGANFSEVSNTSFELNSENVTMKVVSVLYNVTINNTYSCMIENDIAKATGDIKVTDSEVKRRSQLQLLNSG
The experiment in a line: ELISA, mouse B7-H4ECD mIgG2a Fc fusion coated. As for the experimental part: 100 μg/ml mouse B7-H4ECD mIgG2a Fc fusion protein diluted in PBS was immobilized on flat bottom 96 well plate (Costar 9017) overnight at 4° C. Plates were washed twice with PBS+0.1% PS-20 and blocked with 200 μl/well PBS 10% FBS at RT for 1 hr. 100 μl chimeric 6H3 and 14 selected 6H3 humanized variants diluted in PBS 10% FBS were added to each well and incubated at RT for 1 hr. Plates were washed three times and 100 μl 1 μg/ml anti-human Ig HRP (Sigma) was added to each well and incubated at RT for 1 hr. Plates were washed six times and 100 μl TMB substrate (SurModics) was added to each well for 5-15 mins 100 μl stop solution (0.1M Sulfuric acid) was added to each well. Plates were read at Absorbance 450 nm by PerkinElmer EnVision 2104 Multilabel Reader.

In experiment [3] the target is T3, human B7-H4 expressed on cells (human, UniProt Q7Z7D3 25-282).
T3 construct: the cell line is named under assay or readout; also called full length human B7-H4 on HEK293 cells; 293T.hB7-H4
T3 sequence: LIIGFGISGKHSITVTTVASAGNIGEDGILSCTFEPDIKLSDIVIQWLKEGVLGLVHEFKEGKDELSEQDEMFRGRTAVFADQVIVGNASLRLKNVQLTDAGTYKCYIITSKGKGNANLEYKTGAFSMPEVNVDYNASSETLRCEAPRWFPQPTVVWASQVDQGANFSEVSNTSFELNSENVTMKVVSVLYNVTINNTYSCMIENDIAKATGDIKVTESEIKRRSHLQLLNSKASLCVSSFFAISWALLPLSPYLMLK
Briefly: flow cytometry on HEK293.hB7-H4 transfectants, one-site specific binding fit. The method, then: For each staining, 0.2 million HEK293.hB7-H4 transfectants were resuspended in 100 μl flow cytometry buffer (PBS+2% FBS). A serial dilution of chimeric 6H3 and 14 humanized variants of 0, 0.1 ng, 0.3 ng, 1 ng, 3 ng, 10 ng, 30 ng, 100 ng, 300 ng, 1 μg, 3 μg and 10 μg were added to the cells and incubated at 4° C. for 30 min. Cells were then washed twice with 2 ml flow cytometry buffer, and resuspended in 100 μl flow cytometry buffer. 1 μl anti-hIg PE secondary antibody (Biolegend) was added and incubated with the cells for 15 mins Samples were then washed and resuspended in 100 μl flow cytometry buffer. Flow Cytometry data was acquired using BD Canto (BD Biosciences) in plate format and analyzed by FlowJo software. Staining data (MFI) was then input into Prism 5 software to generate binding curve. Curve-fit using one-site specific binding algorithm calculates individual KD for each variant.
On the technique in general: In flow cytometry, cells or beads pass a laser one at a time.

The target in experiment [4] is T4, B7-H4-Ig fusion protein (human).
T4 construct: also called human B7-H4 Ig
Briefly: competition ELISA on B7-H4-Ig-coated plate, Plate 2; competitor biotinylated mouse 6H3 (5 ng/ml). The method, then:
(§1) A 12-point, 3-fold dilution series of 14 humanized 6H3 antibody variants was prepared ranging from 100 μg/ml to 0.5 ng/ml. Dilutions were prepared in assay diluent containing biotinylated mouse anti-human B7-H4 6H3 (SEQ ID NOS:3 and 5 for light chain variable region and heavy chain variable region respectively) at 5 ng/ml. Antibodies were allowed to bind to B7-H4-Ig-coated assay plates (200 ng/well) for 1 hour at room temperature and detected with streptavidin HRP.

In experiment [5] the target is T3, human B7-H4 expressed on cells. Briefly: saturation binding, flow cytometry on 624mel/B7-H4 cells, biotinylated mAb, azide-treated cells; unit not given. The method, then:
A saturation binding experiment was carried out on 624mel/B7-H4 cells using the chimeric 6H3 mAb and humanized variants of 6H3. Briefly, 50,000 cells were pretreated with 0.1% azide on ice for 30 minutes to inhibit B7-H4 internalization then stained for 30 minutes with biotinylated anti-B7-H4 mAbs. The mAbs were diluted in a 12-point, 3-fold dilution series ranging from 200 μg/ml down to 1 ng/ml. Cell were stained with streptavidin PE for 10 minutes, washed, fixed and analyzed by flow cytometry.
FIGS. 35A-35B are binding curves for the raw (FIG. 35A) and background subtracted data (FIG. 35B). […] The subtracted values were used to determine the Kd and Bmax. The antibodies appear to fall into two groups based on Kd values (Table 10).

Experiment [6] has as its target T5, B7-H4 fusion protein Variant 5: IgC residues 154-259 of SEQ ID NO:1 (human, UniProt Q7Z7D3 154-259).
T5 construct: Human IgG1 Fc fusion protein; also called IgC only; not shown: human IgG1 Fc
T5 sequence: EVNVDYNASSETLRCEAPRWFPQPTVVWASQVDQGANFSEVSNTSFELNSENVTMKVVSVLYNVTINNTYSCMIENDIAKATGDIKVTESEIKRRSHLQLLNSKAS
The experiment in a line: ELISA, B7-H4 Fc fusion protein immobilized at 1 µg/ml, mouse antibody titrated, anti-mouse Ig HRP. As for the experimental part:
(§2) 100 μl 1 μg/ml human IgG1 Fc fusion proteins diluted in PBS consisting of different segments of B7-H4 Extracellular domains were immobilized on flat bottom 96 well plates (Costar 9017) overnight at 4° C. […] Plates were washed twice with PBS+0.1% PS-20 and blocked with 200 μl/well PBS 10% FBS at RT for 1 hr. A titration of mouse anti-human B7-H4 antibodies 2H9, 2D1, 2E11, 6H3, 8E11 or H74 diluted in PBS 10% FBS were added to the plates and incubated at RT for 1 hr. Plates were washed three times and 100 μl 1 μg/ml anti-mouse Ig HRP (Sigma) was added to each well and incubated at RT for 1 hr. Plates were washed six times and 100 μl TMB substrate (SurModics) was added to each well for 5-15 mins. 100 μl stop solution (0.1M Sulfuric acid) was added to each well. Plates were read at Absorbance 450 nm by PerkinElmer EnVision 2104 Multilabel Reader.

Experiment [7] has as its target T4, B7-H4-Ig fusion protein. The experiment in a line: competition ELISA on B7-H4-Ig-coated plate, Plate 1; competitor biotinylated mouse 6H3 (5 ng/ml). As for the experimental part:
as §1

Experiment [8] has as its target T6, B7-H4 fusion protein Variant 1: IgV residues 29-149 of SEQ ID NO:1 (human, UniProt Q7Z7D3 29-149).
T6 construct: Human IgG1 Fc fusion protein; also called IgV only; not shown: human IgG1 Fc
T6 chain: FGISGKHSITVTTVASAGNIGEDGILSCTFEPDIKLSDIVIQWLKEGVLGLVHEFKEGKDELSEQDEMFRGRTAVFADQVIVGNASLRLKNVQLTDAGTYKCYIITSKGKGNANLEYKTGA
Briefly: ELISA, B7-H4 Fc fusion protein immobilized at 1 µg/ml, mouse antibody titrated, anti-mouse Ig HRP. The method, then: as §2

Experiment [9] addresses T7, B7-H4 fusion protein Variant 2: IgV residues 29-154 of SEQ ID NO:1 (human, UniProt Q7Z7D3 29-154).
T7 construct: Human IgG1 Fc fusion protein; also called IgV only; not shown: human IgG1 Fc
T7 chain: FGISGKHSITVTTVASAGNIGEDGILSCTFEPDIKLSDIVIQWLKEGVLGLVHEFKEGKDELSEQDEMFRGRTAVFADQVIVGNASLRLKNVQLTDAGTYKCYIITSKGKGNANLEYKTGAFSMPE
The description is as above. The method, then:
as §2

For experiment [10], the target named is T8, B7-H4 fusion protein Variant 3: IgV residues 29-158 of SEQ ID NO:1 (human, UniProt Q7Z7D3 29-158).
T8 construct: Human IgG1 Fc fusion protein; also called IgV only; not shown: human IgG1 Fc
T8 chain: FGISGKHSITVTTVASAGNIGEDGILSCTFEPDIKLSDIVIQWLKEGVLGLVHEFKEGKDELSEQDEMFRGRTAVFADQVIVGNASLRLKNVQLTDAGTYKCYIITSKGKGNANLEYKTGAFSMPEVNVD
The experiment is described as above. As for the experimental part:
as §2

B1: humanized 6H3 variant 12 (antibody, V domains shown)
VH: EVQLVQSGAEVKKPGASVKVSCKASGYTFTDYYMNWVRQAPGQGLEWIGIINPYNGDTSYNQKFKGRVTLTVDKSTSTAYMELSSLRSEDTAVYYCARYPESTYWGQGTLVTVSS
VL: DIVMTQTPLSLPVTLGQPASISCRSSQSLVHINGNTYLHWYLQRPGQSPKVLIYKVSNRFSGVPDRFSGSGSGTDFTLKISRVEAEDVGVYFCSQSTHVPLTFGAGTKVEIK
notes: also called V12; 6H3 V12
Turning to B1, the EC50 in experiment [1] was 780 pM; in [2], 90 pM; in [4] it was 3 µg/mL and 20 nM. Also, in experiment [3], the “Bmax(MFI)” value stood at 597 MFI. Moreover, the affinity in [3], expressed as Kd, was 3200 pM. This molecule also registered a Bmax in experiment [5] of 4580.

B2: anti-human B7-H4 antibody 2D1 (antibody, V domains shown)
VH: EVQLVESGGGLVKPGGSLKLSCAASGFTFNSHGMSWVRQTPEKRLDWVATISDGGTYTYYPVNVKGRFTISRDNAKNNLYLQMSHLKSEDTAMYYCARDGGGGAYWGQGTLVTVSA
VL: DVVMTQTPLSLPVSLGDQASISCRSSHSLVHSNGNTYLHWYLQKPGQSPNLLIYIVSNRFSGVPDRFSGSGSGTDFTLKISRVEAEDLGVYFCSQSTHVPPTFGAGTKLELK
notes: Mouse anti-human B7-H4 antibody; also called clone 2D1
In the case of B2, the binding result in experiment [6] is “binds”.

B3: chimeric 6H3 (antibody, V domains shown)
VH: EVQLQQSGPVLVKPGTSVKMSCKASGYTFTDYYMNWVKQSHGKSLEWIGVINPYNGDTTYNQKFKGKATLTVDKSSSTAYMEVNSLTFEDSAVYYCARYPESTYWGQGTLVTVSA
VL: DVVMTQTPLSLPVSLGDQASISCRSSQSLVHINGNTYLHWYLQKPGQSPKVLIYKVSNRFSGVPDRFSGSGSGTDFTLKISRVEAEDLGVYFCSQSTHVPLTFGAGTKLELK
notes: Mouse variable regions with constant regions from the human IgG1 heavy chain and human kappa light chain; also called human chimeric 6H3; hc6H3
Consider B3, for which the EC50 was 620 pM in experiment [1]; 90 pM in experiment [2]; 2.44 µg/mL and 16.2 nM in experiment [7]; 2.26 µg/mL and 15.1 nM in experiment [4]. Besides, in experiment [3], the “Bmax(MFI)” value came to 316 MFI. The molecule also registered a Kd in experiment [3] of 5800 pM. Further, the Bmax in experiment [5] was found to be 5810.

B4: anti-human B7-H4 antibody 2H9 (antibody, V domains shown)
VH: EVQLVESGGNLVKPGGSLKLSCAASGFTFSNSAMSWVRQTPEKRLEWVATISDGGRYTYYPDNVKGRFTISRDNAKNNLYLQMSHLKSEDTALYYCARDRPHWYFDVWGTGATVTVSS
VL: DIVLTQSPASLAVSLGQRATISCRASESIDNYGISFMHWYQQKPGQPPKLLIYRASNLESGIPARFSGSGSRTDFTLTINPVETDDVATYFCQQSDEGRTFGGGTKLEIK
notes: Mouse anti-human B7-H4 antibody; also called clone 2H9
In the case of B4, the binding result in experiment [8], in [9] and in experiment [10] was “binds” in each case.
